Biological target: CBM-Coh (carbohydrate-binding module and type-I cohesin from C. thermocellum CipA) (Clostridium thermocellum)
Assay: ELISA, plates coated with CBM-Coh; wtDoc-Xyn in 10 mM EDTA against wtDoc-Xyn in 1 mM CaCl2

ΔΔG (in EDTA relative to Ca2+): 2.01 kcal/mol
Substance: wtDoc-Xyn (wild-type C. thermocellum Cel48S dockerin fused to the N-terminus of G. stearothermophilus xylanase T-6, C-terminal His tag)

From patent US20110151538A1
